{
  "source": "the PETadex activity labels (doi:10.1016/j.eti.2025.104587)",
  "proteins": {"B1": {"name": "unnamed (protein)", "chain": "MKSVLARARLVAAATAMLAFAAWALVSAAPAVEAQSNPYQRGPNPTRSALTADGPFSVSTYSVSGLSVSGFGGGVIYYPTGTTLTFGGIAMSPGYTASSSSLAWLGRRLASHGFVVLVIDTITRLDFPDSRASQLSAALNYLRTSSPSTVRARLDGTRLAVAGHSMGGGGTLRVSEQLPSLKAGVPLTPWHTDKTFNTSVPQLIVGAENDSVAPVSQHAIPFYQNLPSTTPKVYVELNNASHFAPNTSNATISVYTISWMKLWVDNDTRYRPFLCNVSDASLSDFRSNNRHCQ"}},
  "key": {"PET": {"substrate": "PET", "assay": "Proxy for plastic degradation [Weight/mass loss]", "conditions": "pH 7.5; 0 h"}, "pNPB": {"substrate": "pNPB", "assay": "Proxy for plastic degradation [p-nitrophenol (pNP) release] (% relative activity)"}},
  "data": [
    {"protein": "B1", "values": [
      {"measurement": "Proxy for plastic degradation", "setting": "PET", "result": 0, "unit": "%"},
      {"measurement": "Proxy for plastic degradation", "setting": "pNPB; pH 4", "result": 0},
      {"measurement": "Proxy for plastic degradation", "setting": "pNPB; pH 5", "result": 34.5},
      {"measurement": "Proxy for plastic degradation", "setting": "pNPB; pH 6.5", "result": 75},
      {"measurement": "Proxy for plastic degradation", "setting": "pNPB; pH 7", "result": 86.5},
      {"measurement": "Proxy for plastic degradation", "setting": "pNPB; pH 7.5", "result": 99.5},
      {"measurement": "Proxy for plastic degradation", "setting": "pNPB; pH 7.5, 30 °C", "result": 39.5},
      {"measurement": "Proxy for plastic degradation", "setting": "pNPB; pH 7.5, 40 °C", "result": 41},
      {"measurement": "Proxy for plastic degradation", "setting": "pNPB; pH 7.5, 50 °C", "result": 48},
      {"measurement": "Proxy for plastic degradation", "setting": "pNPB; pH 7.5, 60 °C", "result": 72},
      {"measurement": "Proxy for plastic degradation", "setting": "pNPB; pH 7.5, 70 °C", "result": 99},
      {"measurement": "Proxy for plastic degradation", "setting": "pNPB; pH 7.5, 80 °C", "result": 69.5},
      {"measurement": "Proxy for plastic degradation", "setting": "pNPB; pH 9", "result": 60.5},
      {"measurement": "Proxy for plastic degradation", "setting": "pNPB; pH 10", "result": 45.5}
    ]}
  ]
}
